By stoichiometry N is commonly meant a count of units in the complex or per binding partner. A word on the Kd: it is the equilibrium constant for the complex coming apart. A lower Kd goes with a tighter complex.

The chains are these.
B1: human IQGAP1 C794 (aa 863-1657) (domain or fragment, UniProt P46940 863-1657, looked up)
chain: DPPMVVVRKFVHLLDQSDQDFQEELDLMKMREEVITLIRSNQQLENDLNLMDIKIGLLVKNKITLQDVVSHSKKLTKKNKEQLSDMMMINKQKGGLKALSKEKREKLEAYQHLFYLLQTNPTYLAKLIFQMPQNKSTKFMDSVIFTLYNYASNQREEYLLLRLFKTALQEEIKSKVDQIQEIVTGNPTVIKMVVSFNRGARGQNALRQILAPVVKEIMDDKSLNIKTDPVDIYKSWVNQMESQTGEASKLPYDVTPEQALAHEEVKTRLDSSIRNMRAVTDKFLSAIVSSVDKIPYGMRFIAKVLKDSLHEKFPDAGEDELLKIIGNLLYYRYMNPAIVAPDAFDIIDLSAGGQLTTDQRRNLGSIAKMLQHAASNKMFLGDNAHLSIINEYLSQSYQKFRRFFQTACDVPELQDKFNVDEYSDLVTLTKPVIYISIGEIINTHTLLLDHQDAIAPEHNDPIHELLDDLGEVPTIESLIGESSGNLNDPNKEALAKTEVSLTLTNKFDVPGDENAEMDARTILLNTKRLIVDVIRFQPGETLTEILETPATSEQEAEHQRAMQRRAIRDAKTPDKMKKSKSVKEDSNLTLQEKKEKIQTGLKKLTELGTVDPKNKYQELINDIARDIRNQRRYRQRRKAELVKLQQTYAALNSKATFYGEQVDYYKSYIKTCLDNLASKGKVSKKPREMKGKKSKKISLKYTAARLHEKGVLLEIEDLQVNQFKNVIFEISPTEEVGDFEVKAKFMGVQMETFMLHYQDLLQLQYEGVAVMKLFDRAKVNVNLLIFLLNKKFYGK
notes: source: E. coli, purified (glutathione Sepharose), GST cleaved with thrombin; not shown: GST, N-terminal, cleaved
B2: human IQGAP1 GRD1 (aa 962-1345) (domain or fragment, UniProt P46940 962-1345, looked up)
chain: SKEKREKLEAYQHLFYLLQTNPTYLAKLIFQMPQNKSTKFMDSVIFTLYNYASNQREEYLLLRLFKTALQEEIKSKVDQIQEIVTGNPTVIKMVVSFNRGARGQNALRQILAPVVKEIMDDKSLNIKTDPVDIYKSWVNQMESQTGEASKLPYDVTPEQALAHEEVKTRLDSSIRNMRAVTDKFLSAIVSSVDKIPYGMRFIAKVLKDSLHEKFPDAGEDELLKIIGNLLYYRYMNPAIVAPDAFDIIDLSAGGQLTTDQRRNLGSIAKMLQHAASNKMFLGDNAHLSIINEYLSQSYQKFRRFFQTACDVPELQDKFNVDEYSDLVTLTKPVIYISIGEIINTHTLLLDHQDAIAPEHNDPIHELLDDLGEVPTIESLIGESS
notes: as for B1
B3: human CDC42 (aa 1-178), wild type (natural protein)
chain: not shown
notes: Loaded with mant-GppNHp or mant-GDP (fluorescence assays) or GppNHp (SEC); also called CDC42 WT; CDC42^wt; source: E. coli, purified (glutathione Sepharose), GST cleaved with thrombin; not shown: GST, N-terminal, cleaved
B4: human CDC42 (aa 1-178) Q61L (natural protein)
chain: not shown
notes: also called CDC42^Q61L; CDC42(Q61L); source: E. coli, purified (glutathione Sepharose), GST cleaved with thrombin; not shown: GST, N-terminal, cleaved
B5: human IQGAP2 C795 (aa 780-1575) (domain or fragment, UniProt Q13576 780-1575, looked up)
chain: PLTVIRKFVYLLDQSDLDFQEELEVARLREEVVTKIRANQQLEKDLNLMDIKIGLLVKNRITLEDVISHSKKLNKKKGGEMEILNNTDNQGIKSLSKERRKTLETYQQLFYLLQTNPLYLAKLIFQMPQNKSTKFMDTVIFTLYNYASNQREEYLLLKLFKTALEEEIKSKVDQVQDIVTGNPTVIKMVVSFNRGARGQNTLRQLLAPVVKEIIDDKSLIINTNPVEVYKAWVNQLETQTGEASKLPYDVTTEQALTYPEVKNKLEASIENLRRVTDKVLNSIISSLDLLPYGLRYIAKVLKNSIHEKFPDATEDELLKIVGNLLYYRYMNPAIVAPDGFDIIDMTAGGQINSDQRRNLGSVAKVLQHAASNKLFEGENEHLSSMNNYLSETYQEFRKYFKEACNVPEPEEKFNMDKYTDLVTVSKPVIYISIEEIISTHSLLLEHQDAIAPEKNDLLSELLGSLGEVPTVESFLGEGAVDPNDPNKANTLSQLSKTEISLVLTSKYDIEDGEAIDSRSLMIKTKKLIIDVIRNQPGNTLTEILETPATAQQEVDHATDMVSRAMIDSRTPEEMKHSQSMIEDAQLPLEQKKRKIQRNLRTLEQTGHVSSENKYQDILNEIAKDIRNQRIYRKLRKAELAKLQQTLNALNKKAAFYEEQINYYDTYIKTCLDNLKRKNTRRSIKLDGKGEPKGAKRAKPVKYTAAKLHEKGVLLDIDDLQTNQFKNVTFDIIATEDVGIFDVRSKFLGVEMEKVQLNIQDLLQMQYEGVAVMKMFDKVKVNVNLLIYLLNKKFYGK
notes: as for B1

Holding throughout (settings): both partners purified
Assay [1] concerns the target B3. Nature of the assay: fluorescence polarisation; 1 µM mant-GDP-bound CDC42 in the cuvette, IQGAP protein titrated; quadratic ligand binding equation. (Fluorescence polarisation rises when a labelled molecule tumbles more slowly, as on binding a larger partner.)
Assay [2] deals with B4. Briefly: SEC; GppNHp-bound CDC42 mixed with IQGAP1 GRD1; Superdex 200 10/300, 30 mM Tris/HCl pH 7.5, 150 mM NaCl, 5 mM MgCl2; stoichiometry from calibrated elution volumes.
Assay [3] addresses B3. Described as above.
Assay [4] concerns the target T1, human IQGAP2 GRD2 (aa 875-1246) (human, UniProt Q13576 875-1246).
T1 construct: source: E. coli, purified (glutathione Sepharose), GST cleaved with thrombin; not shown: GST, N-terminal, cleaved
T1 sequence (looked up): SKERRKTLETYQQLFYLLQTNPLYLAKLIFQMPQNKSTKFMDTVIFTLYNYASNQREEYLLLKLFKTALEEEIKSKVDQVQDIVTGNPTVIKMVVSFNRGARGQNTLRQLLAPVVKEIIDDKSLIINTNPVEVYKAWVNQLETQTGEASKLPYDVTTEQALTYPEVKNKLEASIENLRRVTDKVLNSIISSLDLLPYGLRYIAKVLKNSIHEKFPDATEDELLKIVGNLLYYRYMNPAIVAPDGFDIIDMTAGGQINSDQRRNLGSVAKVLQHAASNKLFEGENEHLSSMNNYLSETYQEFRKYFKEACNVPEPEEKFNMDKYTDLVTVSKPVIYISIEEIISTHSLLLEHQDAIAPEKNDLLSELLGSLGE
Nature of the assay: fluorescence polarisation; 1 µM mant-GppNHp-bound CDC42 in the cuvette, IQGAP protein titrated; quadratic ligand binding equation.

For assay [5], the target named is B2. The assay is described as above.
The target of assay [6] is B5. Described as above.
For assay [7], the target named is B1. The assay is described as above.

B1: the “fold higher affinity for mGppNHp-bound than for mGDP-bound CDC42” value in assay [1] was approximately 100 fold.
Take B2: the “stoichiometry N” value in assay [2] was 2 ratio 2:1 as printed (which partner is the 2 is not told); in assay [3], 1 GRD1 per CDC42 (2:2).
For the molecule B3, the dissociation constant Kd in assay [4] was found to be 69000 nM; in assay [5], 186000 nM; in assay [6] it was 900 nM; in assay [7], 600 nM.
With B4, the Kd turned out to be 2500 nM in assay [4] and 2700 nM in assay [5].
With B5, the “fold higher affinity for mGppNHp-bound than for mGDP-bound CDC42” value in assay [1] is approximately 100 fold.
